# Reference: patent US20180118841A1
# How the values were obtained:
# [1] = target: OX40 human/mouse chimera 1544 (human; mouse) (UniProt P47741); experiment: FACS, 293-F transfectants; MFI/isotype control
# [2] = target: CD137 human/mouse chimera 1550 (human; mouse) (UniProt P20334); experiment: FACS, 293-F transfectants; MFI/isotype, normalized to full-length CD137
# CD137 human/mouse chimera 1550 (human; mouse), sequence (P20334 other isoform, or with tags, fused parts or gaps mutant limits assumed): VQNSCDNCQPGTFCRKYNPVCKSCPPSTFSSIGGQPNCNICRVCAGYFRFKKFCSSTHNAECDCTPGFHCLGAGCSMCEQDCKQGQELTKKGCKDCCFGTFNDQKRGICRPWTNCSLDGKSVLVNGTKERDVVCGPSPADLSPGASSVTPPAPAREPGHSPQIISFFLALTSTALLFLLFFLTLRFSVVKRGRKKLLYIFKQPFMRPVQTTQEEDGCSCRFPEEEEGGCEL
# OX40 human/mouse chimera 1544 (human; mouse), sequence (P47741 other isoform, or with tags, fused parts or gaps mutant limits assumed): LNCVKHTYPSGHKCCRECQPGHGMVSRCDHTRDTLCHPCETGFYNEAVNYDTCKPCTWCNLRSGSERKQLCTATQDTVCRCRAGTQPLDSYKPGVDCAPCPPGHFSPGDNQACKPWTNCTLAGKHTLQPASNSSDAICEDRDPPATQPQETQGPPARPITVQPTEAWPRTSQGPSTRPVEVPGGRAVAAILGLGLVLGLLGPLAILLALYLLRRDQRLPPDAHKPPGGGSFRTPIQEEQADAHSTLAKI
relative MFI [1],relative binding [2],Binder
2,–,"anti-OX40 antibody 1170/1171 (antibody, V domains shown) VH: EVQLLESGGGLVQPGGSLRLSCAASGFTFGGYYMSWVRQAPGKGLEWVSYIPGSGGSTYYADSVKGRFTISRDNSKNTLYLQMNSLRAEDTAVYYCARYDYYWMDYWGQGTLVTVSS VL: DIQMTQSPSSLSASVGDRVTITCRASQSISSYLNWYQQKPGKAPKLLIYAASSLQSGVPSRFSGSGSGTDFTLTISSLQPEDFATYYCQQGHGSYPHTFGQGTKLEIK"
–,0.07,"anti-CD137 antibody 1204/1205 (antibody, IgG1, V domains shown) VH: EVQLLESGGGLVQPGGSLRLSCAASGFTFSSYYMGWVRQAPGKGLEWVSGIGSYYGYTGYADSVKGRFTISRDNSKNTLYLQMNSLRAEDTAVYYCARAYYDYNYYYAYFDYWGQGTLVTVSS VL: DIQMTQSPSSLSASVGDRVTITCRASQSISSYLNWYQQKPGKAPKLLIYAASSLQSGVPSRFSGSGSGTDFTLTISSLQPEDFATYYCQQSVPHYPFTFGQGTKLEIK"
